Data published in the supplement of paper PMC10567573.

B1: CD69 (parent)
chain: FVAENSSLHPESGQENDATSPHFS
B2: ZNF8 (parent)
chain: RIHTGERPYMCKECGKAFSQNSSL

Variants of: B1
Assay: protein stability index of a GFP-peptide fusion (GPS, HEK-293T) (PSI 1-6); higher = more stable
Details: c terminus: a fixed tail appended
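Note: lentivirally expressed fusions sorted by FACS into six bins by GFP to DsRed ratio, PSI derived from sequencing read proportions per bin multiplied by bin number.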

Protein stability index of substitutions, site by site:
A18: L 2.85, R 2.57, M 2.73, T 2.79, C 2.9, D 3.22, K 2.61, Y 2.23, F 2.67, E 3.87, V 3.22, H 2.45, P 3.19, Q 3.53, S 2.91, G 3.03, W 2.24, I 2.71, N 3.07
P21: T 2.86, E 3.97, Q 3.15, W 2.9, G 3.04, R 2.56, K 3.25, D 3.6, I 2.65, M 2.56, H 2.46, V 2.52, F 2.91, A 2.62, Y 2.62, C 2.64, L 2.33, N 2.6, S 2.98
D17: K 2.2, V 2.36, N 2.95, A 3.79, G 2.65, Y 2.18, E 2.82, Q 2.32, F 2.05, T 2.54, W 1.92, C 2.31, S 2.73, M 2.46, P 2.76, H 2.97, L 2.56, R 2.24, I 2.69
N16: V 3.13, W 2.11, Y 2.72, R 2.66, T 2.8, S 3.19
H22: K 3.24, Q 3.76, I 2.45, P 3.19, A 3.21, D 3.79, T 3.11, C 2.65, G 3.33, Y 1.72, V 3.54, E 3.82, L 2.64, R 3.18, F 1.66, S 2.86, W 2.72, M 2.71, N 3.21
S20: N 2.71, W 2.09, K 2.71, I 3.02, C 2.78, V 2.68, A 3.16, R 2.45, H 2.5, F 2.32, Q 3.15, T 3.12, P 2.54, Y 2.11, G 3.17, L 3.02, E 3.75, M 2.78, D 4.01
F23: P 3.37, W 2.02, A 3.55, V 3.59, K 4.07, C 3.19, R 3.22, S 4.12, D 4.53, Q 3.8, L 3.55, M 3.56, T 3.61, E 4.17, Y 3.09, I 3.46, N 3.8, H 3.56, G 3.58
T19: Q 3.16, A 3.35, V 2.77, E 4.03, M 2.73, G 3.24, Y 2.02, L 2.6, K 2.37, I 3.16, N 2.9, F 1.97, D 3.75, S 2.84, C 2.5, R 2.92, P 2.84, H 3.19, W 2.75
S24: I 2.19, K 2.91, E 3.75, Y 2.38, M 2.09, T 3.27, V 2.77, P 2.57, A 3.55, D 3.9, N 2.92, Q 2.78, C 2.5, R 1.77, G 3.13, L 3.04, H 3.55, F 2.27

Variants of: B2
Assay: as above
Details: c terminus: a fixed tail appended

Protein stability index of substitutions, site by site:
R1: G 3.34, F 1.97, I 2.77, E 2.87, H 3.56, C 4.88, L 2.63, D 2.71, A 2.93, K 3.01
